Measured values from paper PMC3940207 (Molecular cell, 2014).

Experiments:
[1] = target: single chain H2B_(36-130) and H2A.Z_(22-118) chimera; assay: ITC
[2] = target: single chain H2B_(36-130) and H2A.Z_(22-118) chimera; assay: AUC
Swr1_(504-650) = target: T1, Swr1_(504-650) (S. cerevisiae, UniProt Q05471 505-651); assay: ITC
T1 sequence (looked up): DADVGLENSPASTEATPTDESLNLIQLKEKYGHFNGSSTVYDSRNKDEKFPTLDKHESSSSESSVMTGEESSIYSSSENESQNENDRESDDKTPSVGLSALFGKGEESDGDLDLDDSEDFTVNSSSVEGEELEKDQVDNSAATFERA

With “Swr1_(504-650) (from UniProt Q05471 505-651) (domain or fragment)” the Kd [1] was 7 nM.

“Swr1_(589-650) (from UniProt Q05471 590-651) (domain or fragment)” was tested, and the stoichiometry N [2] was 1.

B1: scH2B-H2A (other)
chain: MRKETYSSYIYKVLKQTHPDTGISQKSMSILNSFVNDIFERIATEASKLAAYNKKSTISAREIQTAVRLILPGELAKHAVSEGTRAVTKYSSSTQAQSRSAKAGLTFPVGRVHRLLRRGNYAQRIGSGAPVYLTAVLEYLAAEILELAGNAARDNKKTRIIPRHLQLAIRNDDELNKLLGNVTIAQGGVLPNI
In the case of B1, the Kd (Swr1_(504-650)) is reported as roughly 151 nM.
